Data set [1] is described as follows: Detection of β-diketone hydrolyzing activity (acetone from 2,4-pentanedione by gas chromatography). The format is biochemical. The conditions noted are these: qualitative. Details: key: Yes: Acetone, a product by the hydrolysis, was qualitatively detected. From the text:
As shown in the above (2), the PVA-degrading enzyme of the present invention has an activity of hydrolyzing […]-diketone, i.e., […]-diketone-hydrolyzing activity. Enzymes having β-diketone-hydrolyzing activity can hydrolyze an oxidized PVA having a […]-diketone structure (i.e., oxidized PVA). Beta-diketone-hydrolyzing activity can be detected by examining the activity of hydrolyzing 2, 4-pentanedione which is a model compound of oxidized PVA having a […]-diketone structure. Acetone and acetic acid are formed when a PVA-degrading enzyme hydrolyzes 2,4-pentanedione. Therefore, for example, […]-diketone-hydrolyzing activity can be detected by the following method using 2,4-pentanedione as a substrate.
2,4-Pentanedione (Reagent grade, commercialized by Wako Pure Chemical Industries Co., Ltd., Osaka, Japan) was added to 50 mM sodium phosphate buffer (pH 7.0) to give a concentration of 0.2% (w/v) to make into a substrate solution. To 1 mL of the substrate solution, 0.2 mL of enzyme solution and 0.8 mL of 50 mM sodium phosphate buffer (pH 7.0) were added and then the mixture was shaken at 27° C. for 3 hours for the reaction. After the reaction, 2 mL of the reaction mixture was withdrawn and put in a glass vial, and then the vial was sealed and heated at 95° C. for 40 min. […]

The nature of data set [2]: Thermal stability and pH stability (residual PVA-oxidizing activity). The conditions noted are these: 10 mM phosphate buffer, pH 7.0, 60 min. The format is biochemical. Here is the method:
To 0.5 mL of a substrate solution prepared by dissolving PVA (Reagent grade polyvinyl alcohol, polymerization degree: 2,000, Nacalai Tesque Inc., Kyoto, Japan) into 100 mM sodium phosphate buffer (pH 7.0) to give a concentration of 2% (w/v), 15 µL of 2% (w/v) of sodium azide solution was added, and then 0.5 mL of an enzyme solution is further added and reacted with shaking at 27° C. for 60 min. After the 60 min-reaction, the reaction was stopped by mixing 0.32 mL of the reaction mixture to 0.8 mL of a titanium reagent, and the yellow color, produced by reacting hydrogen peroxide formed by the enzyme reaction and the titanium reagent, was measured by measuring the absorbance at 410 nm (A410) as an index. Separately, the enzyme solution was added to the substrate solution, and the resulting mixture is immediately mixed with the titanium reagent. The resulting mixture was similarly measured its color and the value was used as the value at the reaction zero minutes. Then, the amount of the formed hydrogen peroxide is determined and the PVA-oxidizing activity is calculated based on the following formula. It is known that the absorbance at 410 nm (A410) increases by “1” when 3.65 […]mole/mL of hydrogen peroxide is formed. […]
In the two purified preparations of the PVA-degrading enzyme, PVA-A was used for investigating thermal stability and pH stability using PVA-oxidizing activity as an index according to the assay method. Thermal stability was determined by the steps of incubating the enzyme solution (in 10 mM phosphate buffer, pH 7.0) at various temperature for 60 min, cooling in water, and then measuring the residual enzyme activity. pH Stability was determined by the steps of incubating the enzyme solution in 100 mM buffer with different pH at 4° C. for 24 hours, adjusting pH to 7.0, and then measuring the residual enzyme activity. […] In FIG. 6, symbols, “●”, “▪”, “▴” and “♦”, mean values measured by using acetate buffer, phosphate buffer, glycine-NaOH buffer, and potassium chloride-NaOH buffer, respectively, for pH control.

B1: PVA-A: purified PVA-degrading hybrid enzyme from Pseudomonas sp. VT1B strain, amino acid sequence of SEQ ID NO: 2 (protein, listed as Pseudomonas sp.)
chain: AENWPMFGKNYENTRATSDTQISTANISTLNVVRRTTDGGITGTPTVVDGVAYYSDFSGYVKAVRVSDGVVLWRVRPQTTMLSPSPFVTADTVYVAGNNSYVYALNRANGAVRWTTQIETSPNSRISSSPIVVGNILIIGTGSYQVFLPATPMFRGRVAFLNATTGAILPYSTNMCPSASCGGGISVWSTAAIDESTRTGYIGTGQAYRDPAGPYSDALVAFNIDTGAIRWARQFLANDVYQLGGTLRYDYDVGAAPNLFVANGQRMVGVGGKDGTYRAFNRDTGAPIWNTPVGRGSAIGGVMQSTAYGDGRIYVTSNTSTIGSGRNDPVPATAEASALDAATGAPVWIRQLDAGGFGGVAYANGLMYASTWDGRLRVFNAANGNIVREVQVSPSRGAYVPAPTDGFPNGSAGGPVVYGNRVLMGYGWTWVLNINGGLTTMEATVGGGASQTVTLASSSDTYVQSGTPTTNYAYDVNLLARLADAEGLTRASFLQFPLTAVPAGTITSARLRLYGRHDAPTGTGQSVSVWPGTKTTTWSGPNVTYNNSSTETGVDFYATSSIATATVGITPQYYEWNVTDYVASRRSLGHATFGVAVNSAHQYRVTLNSADNTANRPELVVTVSGGTGSQLPGSCPSGFTARAGVNQGFMHNGVARGFVLNVPANVSTPRPVFVSLTGSVESTNENLGARGGAGALNNDGFLVIGPVRRCAGQDPNGAGTSVNGGTCNQAGTGGWNWNPWNEGRVFAAAGDPWKTAEGPDSQFLEAVVRCVAASYPVDSTRMYLGGISSGATMTHRALLFNSDFWAGGLPLSGEWYVSQDNGTAYPGADEFAARRQAVINNPTKIFQGRVGPLPLPATQSPMIVISMWGGANDIWYCGSTLCADYRPSTQAASNYFSALPNVVHVACSSSHGHQWPTQNRAAFNTWAATTLASHPKGTPASSFVLPPPPAGYSCRVGRYTDHYSGT
Take B1: the “2,4-Pentanedione-Degrading Activity” value in data set [1] is reported as “Yes*”. The “Thermal stability of PVA-oxidizing activity” value in data set [2] was “up to 45 °C”.

Values taken from patent publication US11859229B2, “Polyvinyl alcohol-degrading enzyme and process for producing the same” (Hayashibara Co., Ltd., priority 2017, dated 2024).
